In the supplement of paper PMC9732359:
± gives the uncertainty stated by the source.

Assay: protein stability index of a GFP-peptide fusion (yeast GPS) (PSI 1-4); higher = more stable; sorted into four equal gates, so the index is relative within each strain
Method in brief: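 The protein stability index combines read frequencies across sorting gates, each weighted by its gate number and then summed. To obtain those frequencies, a pooled yeast library of GFP fusions to tiled 17-residue yeast protein peptides, on a plasmid also expressing Cherry, was grown to mid-log phase in leucine-free medium. The cells were sorted into four equal gates by GFP/Cherry ratio before plasmid amplification by PCR and Illumina sequencing.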

Sequence | protein stability index (pdr5∆) | protein stability index (san1∆) | protein stability index (ubr1∆) | protein stability index (doa10∆)
KPFGSAKSDETKQASSF [YLR335W/NUP2] | 2.09 ± 0.12 | 1.92 ± 0.15 | 1.06 ± 0.13 | 
KPGSIDAISQVINIAKA [FAS1] | 2.87 ± 0.061 | 2.61 ± 0.069 | 2.95 ± 0.033 | 2.14 ± 0.052
KPIQNGEIIDISAFTQF [ARP9] | 2.76 ± 0.085 | 2.64 ± 0.091 | 2.98 ± 0.061 | 3.02 ± 0.098
KPLKKGSADIGASVISL [SIR4] | 3.14 ± 0.055 | 3.05 ± 0.038 | 3.06 ± 0.04 | 3.09 ± 0.068
KPPISDSVFSFGPKKEN [YLR335W/NUP2] | 2.81 ± 0.057 | 2.75 ± 0.046 | 2.94 ± 0.039 | 2.82 ± 0.065
KPSKPFNVDDVLKFTFT [MED8] | 2.83 ± 0.051 | 3.03 ± 0.034 | 2.74 ± 0.039 | 3.1 ± 0.061
KPVKVALIFIFFAYFIG [YJL039C/NUP192] | 1.4 ± 0.037 | 1.38 ± 0.064 | 1.4 ± 0.027 | 1.66 ± 0.042
KPYDINVVLVTNDRLNR [DIS3] | 2.92 ± 0.098 | 2.96 ± 0.094 | 3.08 ± 0.094 | 1.69 ± 0.085
KPYYFSNNHKLSESDKK [RPN12] | 1.47 ± 0.077 | 1.33 ± 0.13 | 1.22 ± 0.042 | 1.23 ± 0.063
KQFFQMTPLLVNCLELL [PCI8] | 1.32 ± 0.034 | 1.26 ± 0.067 | 1.23 ± 0.025 | 1.4 ± 0.034
KQGRIKNATEELLRLAN [CSN12] | 3 ± 0.13 | 2.6 ± 0.14 | 3.36 ± 0.22 | 3.15 ± 0.17
KQIVHDSGRGAPLAKVV [RPL2A] | 2.16 ± 0.18 |  | 2.41 ± 0.17 | 2.16 ± 0.22
KQLQQPKSSPLKKNNYN [SIR4] | 2.98 ± 0.068 | 3.1 ± 0.039 | 3.07 ± 0.039 | 3.03 ± 0.089
KQQGVGLPTDAYVAIEQ [RPN8] | 2.7 ± 0.15 | 2.89 ± 0.21 | 3.19 ± 0.1 | 2.78 ± 0.083
KREKRVFLKHSLSIKLA [RPN6] | 3.22 ± 0.09 | 2.75 ± 0.086 | 2.81 ± 0.094 | 2.58 ± 0.083
KRIKPNTEITQKSSKEN [ECM29] | 2.9 ± 0.074 | 2.98 ± 0.067 | 3.14 ± 0.056 | 2.81 ± 0.081
KRKCGHTNQLRPKKKLK [RPL40A] | 2.84 ± 0.036 | 2.942 ± 0.028 | 2.994 ± 0.029 | 2.76 ± 0.038
KRKSAQEPELSLDQGDA [SMC4] | 3.19 ± 0.1 | 3.09 ± 0.17 | 3.39 ± 0.099 | 3.23 ± 0.1
KRLGPKRANNIRKFFGL [RPS6A] | 3.56 ± 0.071 | 3.25 ± 0.038 | 3.46 ± 0.045 | 3.52 ± 0.077
KRNGDEVYTLVDSQGLP [ARP7] | 3.34 ± 0.11 | 2.98 ± 0.14 | 3.21 ± 0.097 | 3.35 ± 0.17
KRPNNKTLEKLESTIAE [IRR1] | 3.35 ± 0.1 | 3.01 ± 0.096 | 3.31 ± 0.14 | 3.62 ± 0.14
KRPYESSRLDAELKLAG [RPS9A] | 3.05 ± 0.065 | 2.81 ± 0.072 | 2.96 ± 0.14 | 3.24 ± 0.088
KSAYANTEKDYKMVQEQ [SMC2] | 3.02 ± 0.066 | 3.19 ± 0.04 | 3.21 ± 0.049 | 2.95 ± 0.053
KSDDDDHTVDEIDHVEY [SRB8] | 2.46 ± 0.08 | 2.98 ± 0.1 | 2.91 ± 0.048 | 2.45 ± 0.069
KSDEAKWKPVLSHIVYF [RPN5] | 2.21 ± 0.062 | 2.23 ± 0.058 | 2.03 ± 0.047 | 2.29 ± 0.067
KSEEVKAEDDTGEEEED [RPC37] |  |  | 2.95 ± 0.19 | 
KSGKRKPNIILDEDDTN [RPC31] | 3.12 ± 0.092 | 3.35 ± 0.067 | 3.21 ± 0.046 | 3.29 ± 0.1

Sequence | protein stability index (pdr5∆) | protein stability index (san1∆) | protein stability index (ubr1∆) | protein stability index (doa10∆)
KSKERSSQFVRLASEPG [YMR129W/POM152] | 2.62 ± 0.13 | 3.16 ± 0.1 | 2.8 ± 0.074 | 2.65 ± 0.14
KSKREEEAKSVLPAATK [ARP9] | 1.37 ± 0.067 | 1.29 ± 0.11 | 1.21 ± 0.054 | 1.1 ± 0.092
KSLALLGYNFDGSAIED [SNF5] | 2.99 ± 0.083 | 2.28 ± 0.072 | 2.86 ± 0.07 | 3.01 ± 0.084
KSLPLLITVMEKSPDPT [YCS4] | 1.87 ± 0.043 | 1.92 ± 0.062 | 1.97 ± 0.034 | 1.91 ± 0.045
KSNVIDSMLFVFGFRAN [SMC4] | 2.39 ± 0.054 | 2.16 ± 0.078 | 2.68 ± 0.059 | 2.26 ± 0.049
KSSELELQKLVHDLNKY [SMC2] | 3.41 ± 0.079 | 3.36 ± 0.045 | 3.4 ± 0.05 | 3.22 ± 0.088
KSSIEKDPSPEILVLYN [SIN4] | 2.9 ± 0.055 | 2.91 ± 0.045 | 2.82 ± 0.043 | 2.91 ± 0.05
KSVLGDGKKHSVFYTIL [RPO31] | 2.42 ± 0.085 | 3.02 ± 0.08 | 2.1 ± 0.087 | 2.19 ± 0.087
KTAMAELALLNHWRQNK [BRR2] | 1.79 ± 0.12 | 1.26 ± 0.17 | 1.88 ± 0.062 | 1.39 ± 0.082
KTARGKAALERLKVFEG [RPL16A] | 2.37 ± 0.089 | 2.95 ± 0.1 | 2.1 ± 0.12 | 2.28 ± 0.15
KTDQEEEREGTDQSTEE [CSL4] |  |  |  | 3.12 ± 0.16
KTFKNPKYESLKLEYYN [RPN5] | 1.49 ± 0.089 | 1.09 ± 0.23 | 1.25 ± 0.058 | 2.11 ± 0.083
KTFSRLDALTRHIKSKH [RPN4] | 1.25 ± 0.087 | 1.06 ± 0.12 | 1.5 ± 0.1 | 1.11 ± 0.12
KTKAMVPPINCIFNFLQ [SME1] | 1.65 ± 0.037 | 1.97 ± 0.07 | 2.12 ± 0.036 | 1.65 ± 0.042
KTKFQYKFLDQNSDAST [YIL149C/MLP2] | 3.01 ± 0.096 | 2.94 ± 0.078 | 3.06 ± 0.08 | 3.08 ± 0.1
KTKTSLLPTIKRTICKK [RPR2] | 3.18 ± 0.13 | 2.49 ± 0.18 | 3.29 ± 0.13 | 3.27 ± 0.11
KTKYILQRPTATDEESV [CSN12] | 3.12 ± 0.081 | 2.95 ± 0.17 | 3.14 ± 0.2 | 3.18 ± 0.084
KTLKRMIKESSTANPNI [POP1] | 2.76 ± 0.091 | 2.28 ± 0.092 | 2.67 ± 0.054 | 2.54 ± 0.1
KTLVYLEKCEAEFKKRK [YCS4] | 3.69 ± 0.17 |  |  | 3.42 ± 0.28
KTQLGSTMTEPVKQSFI [GAL11] | 2.9 ± 0.06 | 2.56 ± 0.053 | 2.85 ± 0.037 | 2.81 ± 0.051
KTRKTYCKGKTCRKHTQ [RPL42A] | 1.69 ± 0.068 | 2.75 ± 0.072 | 2.06 ± 0.043 | 2.45 ± 0.068
KTRVGSVTAQVYKIALR [RPC82] | 1.49 ± 0.068 | 1.5 ± 0.16 | 1.15 ± 0.12 | 1.27 ± 0.11
KTSKRTKRWYKNAGLGF [RPS11A] | 2.84 ± 0.12 | 3.17 ± 0.11 | 3.4 ± 0.085 | 3.3 ± 0.091
KTSLSIKVENLNDTTEK [SMC2] | 2.97 ± 0.081 | 3.09 ± 0.063 | 2.89 ± 0.05 | 2.87 ± 0.058
KTVKELRQLLKERYTVE [RRI1] | 2.1 ± 0.062 | 2.1 ± 0.066 | 3.06 ± 0.068 | 2.74 ± 0.054
KTVPFQVNQLQRILEVL [SSN3] | 2.11 ± 0.031 | 1.63 ± 0.041 | 2.08 ± 0.03 | 2.27 ± 0.033
